The target of experiment [1] is T1, Ded1p-eIF4G complex (S. cerevisiae, UniProt P06634 1-604; P39935 1-952; P07260 1-213).
T1 construct: Ded1p, S. cerevisiae, wild type, as Wm1; eIF4G1, S. cerevisiae, as in Wm3; eIF4E, S. cerevisiae, as in Wm3; present in the preparations of eIF4G; State of the thermodynamic model; also called DG; DTG; source: formed from the purified recombinant proteins; copies: + +
Description: global fit of RNA unwinding time courses to a thermodynamic model; K1/2 of a binding step calculated with the model of Figure 4A; RNA bound to the binder before the step, ATP bound to Ded1p and to eIF4A. The conditions noted are these: both partners purified.

Experiment [2] has as its target HA-tagged Ded1p (His6-Ded1p-HA3) (S. cerevisiae), P06634. Description: pull-down; Ded1p-HA held on anti-HA antibody and Protein G Dynabeads; 300 nM S•Tag-eIF4G and 1500 nM eIF4A added together; 20 µg/mL RNases A,B; 8°C overnight; washed with HRB-Na100 buffer; Western blot. To be noted: remark: other sources report otherwise.
For experiment [3], the target named is T2, eIF4G (S. cerevisiae, UniProt P39935 1-952; P07260 1-213).
T2 construct: eIF4G1, scaffolding protein of translation initiation, S. cerevisiae; present in the preparations of eIF4G; the model treats G as one unit; also called eIF4G1; S•Tag-eIF4G; source: recombinant, expression and purification previously described (Hilliker et al., 2011)
T2 sequence (looked up) 1: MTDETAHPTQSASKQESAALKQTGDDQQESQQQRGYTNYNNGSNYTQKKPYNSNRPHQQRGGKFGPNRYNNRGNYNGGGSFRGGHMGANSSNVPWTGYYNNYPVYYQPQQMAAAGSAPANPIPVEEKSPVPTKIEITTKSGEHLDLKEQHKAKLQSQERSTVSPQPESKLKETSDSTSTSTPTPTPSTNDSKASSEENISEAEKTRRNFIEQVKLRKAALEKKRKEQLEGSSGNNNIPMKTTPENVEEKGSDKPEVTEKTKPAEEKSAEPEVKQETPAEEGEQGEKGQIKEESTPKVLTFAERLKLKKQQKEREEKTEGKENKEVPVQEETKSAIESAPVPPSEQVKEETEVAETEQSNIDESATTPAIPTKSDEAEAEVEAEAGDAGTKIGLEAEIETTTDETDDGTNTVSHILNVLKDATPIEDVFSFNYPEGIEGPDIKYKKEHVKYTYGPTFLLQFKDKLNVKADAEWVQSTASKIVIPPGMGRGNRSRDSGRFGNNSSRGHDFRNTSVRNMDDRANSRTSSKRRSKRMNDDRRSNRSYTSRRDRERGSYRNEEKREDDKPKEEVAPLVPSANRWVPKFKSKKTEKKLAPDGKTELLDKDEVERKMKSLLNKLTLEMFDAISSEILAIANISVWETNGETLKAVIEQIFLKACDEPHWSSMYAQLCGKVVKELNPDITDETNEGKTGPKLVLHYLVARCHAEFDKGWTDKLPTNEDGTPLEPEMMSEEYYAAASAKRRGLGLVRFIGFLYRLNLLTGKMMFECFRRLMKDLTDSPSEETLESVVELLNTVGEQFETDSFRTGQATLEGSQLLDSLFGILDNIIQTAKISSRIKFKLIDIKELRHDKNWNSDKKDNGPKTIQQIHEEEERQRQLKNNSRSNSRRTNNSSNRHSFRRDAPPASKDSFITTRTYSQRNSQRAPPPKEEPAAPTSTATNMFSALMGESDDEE
T2 sequence (looked up) 2: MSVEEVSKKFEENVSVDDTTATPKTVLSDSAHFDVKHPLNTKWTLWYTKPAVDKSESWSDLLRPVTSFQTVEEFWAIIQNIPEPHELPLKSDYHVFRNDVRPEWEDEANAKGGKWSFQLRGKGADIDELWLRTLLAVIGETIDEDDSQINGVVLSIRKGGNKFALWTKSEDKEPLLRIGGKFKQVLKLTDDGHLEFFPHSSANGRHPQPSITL
Description: global fit of RNA unwinding time courses to a thermodynamic model; K1/2 of a binding step calculated with the model of Figure 4A; RNA bound to the target before the step, ATP bound to eIF4A. To be noted: both partners purified.

For experiment [4], the target named is T1, Ded1p-eIF4G complex. The description is as above. To be noted: both partners purified.
The target in experiment [5] is T2, eIF4G. Description: global fit of RNA unwinding time courses to a thermodynamic model; K1/2 of a binding step calculated with the model of Figure 4A (Kintek Global Explorer; 16 bp duplex, 25 nt 3' overhang); step without RNA and without ATP. To be noted: both partners purified.
In experiment [6] the target is T1, Ded1p-eIF4G complex. The description is as above. The conditions noted are these: both partners purified.

T1 sequence (P06634 whole entry, one chain of several): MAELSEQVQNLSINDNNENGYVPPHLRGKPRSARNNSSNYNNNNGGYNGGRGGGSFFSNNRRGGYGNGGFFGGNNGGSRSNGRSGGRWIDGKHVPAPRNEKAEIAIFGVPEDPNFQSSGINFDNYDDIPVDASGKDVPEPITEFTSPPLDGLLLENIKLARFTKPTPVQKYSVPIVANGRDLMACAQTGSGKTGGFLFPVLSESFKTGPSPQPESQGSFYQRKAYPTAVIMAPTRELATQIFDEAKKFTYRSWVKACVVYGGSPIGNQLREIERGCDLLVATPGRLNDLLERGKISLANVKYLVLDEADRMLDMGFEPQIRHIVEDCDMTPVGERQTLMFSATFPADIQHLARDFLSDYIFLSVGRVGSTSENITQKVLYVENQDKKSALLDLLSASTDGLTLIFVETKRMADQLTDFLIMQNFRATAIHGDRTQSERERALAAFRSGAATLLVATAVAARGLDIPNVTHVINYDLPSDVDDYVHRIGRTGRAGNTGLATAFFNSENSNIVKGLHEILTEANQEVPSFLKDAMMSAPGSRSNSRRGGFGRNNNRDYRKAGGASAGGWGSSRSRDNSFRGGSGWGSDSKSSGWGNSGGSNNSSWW
Sequence of HA-tagged Ded1p (His6-Ded1p-HA3) (S. cerevisiae), P06634 (P06634 whole entry): as the sequence (P06634 whole entry, one chain of several) above

B1: eIF4A (enzyme, S. cerevisiae, UniProt P10081 1-395, looked up)
chain: MSEGITDIEESQIQTNYDKVVYKFDDMELDENLLRGVFGYGFEEPSAIQQRAIMPIIEGHDVLAQAQSGTGKTGTFSIAALQRIDTSVKAPQALMLAPTRELALQIQKVVMALAFHMDIKVHACIGGTSFVEDAEGLRDAQIVVGTPGRVFDNIQRRRFRTDKIKMFILDEADEMLSSGFKEQIYQIFTLLPPTTQVVLLSATMPNDVLEVTTKFMRNPVRILVKKDELTLEGIKQFYVNVEEEEYKYECLTDLYDSISVTQAVIFCNTRRKVEELTTKLRNDKFTVSAIYSDLPQQERDTIMKEFRSGSSRILISTDLLARGIDVQQVSLVINYDLPANKENYIHRIGRGGRFGRKGVAINFVTNEDVGAMRELEKFYSTQIEELPSDIATLLN
notes: eIF4A, DEAD-box RNA helicase, S. cerevisiae, wild type; also called wild-type yeast eIF4A; source: recombinant, purified as described (Hilliker et al., 2011)
As to B1, the Kd (usually the concentration at which binding is half-saturated) with Ded1p-eIF4G complex [1] is 0.013 nM; in the experiment with eIF4G [3] it was 2100 nM; with Ded1p-eIF4G complex [4], 14 nM; with eIF4G [5] it was 500 nM; in the experiment with Ded1p-eIF4G complex [6] it was 0.14 nM. For the same molecule, the relative band intensity (pull-down compared to input), with eIF4G present in experiment [2] came out at 25%.

Values taken from PMC4990422, “Coupling between the DEAD-box RNA helicases Ded1p and eIF4A” (eLife, 2016).
